The values that follow come from patent publication US7585498B2, “Regulation of adenovirus DNA packaging by IPTG” (The Research Foundation of State University of New York, priority 2001, dated 2009).

One assay has as its system N52.E6 cells. Put plainly: Generation of virus stocks with IPTG in the media. Type of assay: cell-based, human. To be noted: 2 mM IPTG in the media. From the text: Towards the development of an all-inclusive helper virus whose packaging is specifically and selectively repressed while providing early and late gene products for complementation in trans of a gutted virus, the following recombinant Ad was constructed (FIG. 14). Ad-AV-VII(lac)^2-LacWT contains the AV-VII(lac)^2 minimal domain in place of the WT packaging domain as well as a CMV-M45-LacWT expression cassette. Ad-AV-VII^2-LacWT serves as a control, and contains the AV-VII^2 minimal domain without Lac binding sites, as well as the CMV-M45-LacWT expression cassette. These viruses were plaque purified and grown in N52.E6 cells. N52.E6 cells are a human amniocyte cell line transformed with Ad E1A and E1B sequences (Schiedner, Hertel et al. 2000). These cells contain only Ad nts 505-3522 and share no homologous sequence with the viral DNA constructs, thus eliminating the possibility of the generation of replication competent adenovirus (RCA) by recombination with Ad sequences present in other E1-containing cell lines. To generate stocks of these viruses, they were grown in N52.E6 cells with IPTG in the media at a concentration of 2 mM. IPTG is required in the media, as these viruses express Lac repressor protein that is able to bind to lac binding sites within the packaging domain and suppress packaging.

Assay [1] concerns AV-VII(lac)^2 dimer probe. In words: Gel mobility shift assay, AV-VII(lac)^2 dimer probe. To be noted: whole cell extract of transfected 293 cells.
Assay [2] has as its system lac binding site monomer probe. In words: Gel mobility shift assay, lac binding site monomer probe. To be noted: whole cell extract of transfected 293 cells.

`CC(C)S[C@@H]1O[C@H](CO)[C@H](O)[C@H](O)[C@H]1O` [IPTG, isopropyl-β-D-thiogalactopyranoside]: in the assay with N52.E6 cells, the “growth of Lac repressor expressing viruses” value is listed as “allowed for growth of these viruses”.

B1: LacWT: M45 epitope-tagged wild type E. coli Lac repressor protein in whole cell extract of transfected 293 cells (protein)
chain: MKPVTLYDVAEYAGVSYQTVSRVVNQASHVSAKTREKVEAAMAELNYIPNRVAQQLAGKQSLLIGVATSSLALHAPSQIVAAIKSRADQLGASVVVSMVERSGVEACKAAVHNLLAQRVSGLIINYPLDDQDAIAVEAACTNVPALFLDVSDQTPINSIIFSHEDGTRLGVEHLVALGHQQIALLAGPLSSVSARLRLAGWHKYLTRNQIQPIAEREGDWSAMSGFQQTMQMLNEGIVPTAMLVANDQMALGAMRAITESGLRVGADISVVGYDDTEDSSCYIPPLTTIKQDFRLLGQTSVDRLLQLSQGQAVKGNQLLPVSLVKRKTTLAPNTQTASPRALADSLMQLARQVSRLESGQ
modifications: left off: small tags and cut ends
For B1, the “AV-VII(lac) dimer binding activity” value in assay [1] is on record as “detected”. For the same molecule, the “Lac site monomer binding activity” value in assay [2] is “detected”.
